This note sets out measurements from patent US20160002357A1 (Pfizer, published 2016).

Several values for one entry are separate records, joined by “and”; a condition that tells them apart may be missing. Equal values may be shown once.

In experiment [1] the target is T1, cynomolgus monkey P-cadherin ECD (cynomolgus monkey).
T1 construct: extracellular domain; also called cyno P-cadherin ECD; Cyno P-cadherin
Kind of experiment: SPR Biacore pH 7.4.

Experiment [2] concerns the target T1, cynomolgus monkey P-cadherin ECD. Kind of experiment: SPR Biacore pH 7.4, average.
The target of experiment [3] is T2, Hu P-cadherin-Fc (human, UniProt P22223 108-654, limits assumed).
T2 construct: also called recombinant human P-cadherin-Fc; human P-cadherin-Fc; not shown: Fc
T2 sequence (P22223 108-654 limits assumed): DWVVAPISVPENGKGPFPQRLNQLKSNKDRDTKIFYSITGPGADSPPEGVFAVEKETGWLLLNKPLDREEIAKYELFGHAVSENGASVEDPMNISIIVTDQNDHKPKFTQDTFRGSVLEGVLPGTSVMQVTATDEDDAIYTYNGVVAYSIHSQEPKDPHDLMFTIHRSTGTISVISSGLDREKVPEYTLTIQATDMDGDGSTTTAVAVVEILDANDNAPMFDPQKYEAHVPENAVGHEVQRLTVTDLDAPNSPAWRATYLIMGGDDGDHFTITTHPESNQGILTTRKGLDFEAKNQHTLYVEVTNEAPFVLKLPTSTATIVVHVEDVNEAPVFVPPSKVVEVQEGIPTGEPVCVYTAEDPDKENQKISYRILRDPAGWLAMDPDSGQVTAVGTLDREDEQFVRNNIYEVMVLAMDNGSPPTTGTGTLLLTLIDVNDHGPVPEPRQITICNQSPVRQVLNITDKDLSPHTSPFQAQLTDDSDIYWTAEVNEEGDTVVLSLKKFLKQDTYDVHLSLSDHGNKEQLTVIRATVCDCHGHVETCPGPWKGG
Put plainly: ELISA.

The target in experiment [4] is T3, human P-cadherin expressed on the cell surface (human, UniProt P22223 108-829).
T3 construct: also called SW480-huPcad; CHO-huPcad
T3 sequence (P22223 108-829): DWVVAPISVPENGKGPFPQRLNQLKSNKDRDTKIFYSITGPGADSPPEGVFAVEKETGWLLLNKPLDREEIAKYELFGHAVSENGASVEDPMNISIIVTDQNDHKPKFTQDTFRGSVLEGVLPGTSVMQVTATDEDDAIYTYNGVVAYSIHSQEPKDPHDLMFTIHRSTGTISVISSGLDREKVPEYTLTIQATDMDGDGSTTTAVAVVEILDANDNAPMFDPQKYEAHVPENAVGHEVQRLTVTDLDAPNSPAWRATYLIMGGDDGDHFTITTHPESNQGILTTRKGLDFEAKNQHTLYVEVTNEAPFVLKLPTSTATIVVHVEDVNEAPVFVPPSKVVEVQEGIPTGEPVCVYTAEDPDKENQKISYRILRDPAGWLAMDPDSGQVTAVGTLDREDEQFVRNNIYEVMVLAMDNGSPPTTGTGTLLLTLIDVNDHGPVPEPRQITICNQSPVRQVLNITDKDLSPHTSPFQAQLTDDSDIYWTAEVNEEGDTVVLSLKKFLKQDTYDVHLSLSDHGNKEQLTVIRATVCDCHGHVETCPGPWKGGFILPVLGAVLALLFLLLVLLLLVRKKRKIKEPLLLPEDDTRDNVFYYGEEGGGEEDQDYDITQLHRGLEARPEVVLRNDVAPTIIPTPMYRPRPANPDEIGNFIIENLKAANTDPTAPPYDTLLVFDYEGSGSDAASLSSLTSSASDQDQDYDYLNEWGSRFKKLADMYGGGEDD
Put plainly: cell ELISA, H1650 cells.

The target in experiment [5] is T1, cynomolgus monkey P-cadherin ECD. Put plainly: SPR Biacore 3000, antigen immobilised. On the procedure:
(§1) Binding affinity of EK-DART proteins to P-cadherin and CD3 was analyzed by SPR using a BIACORE® 3000 biosensor (GE Healthcare). The antigens huCD3εδ and either human P-cadherin-Fc or human/cynomolgus monkey/murine P-cadherin-ECD were immobilized on the CM-5 sensor chip by amine coupling kit as recommended by the manufacturer. […] All EK-DART proteins in Tables 15 and 16 comprise CD3-2.

Experiment [6] has the same target. Kind of experiment: SPR Biacore. The method, then:
as §1
All EK-DART proteins in Table 17 comprise CD3-2.

Experiment [7] deals with T3, human P-cadherin expressed on the cell …. Put plainly: cell-based or functional assay.
In experiment [8] the target is T1, cynomolgus monkey P-cadherin ECD. Kind of experiment: SPR.
Experiment [9] concerns the target T3, human P-cadherin expressed on the cell …. Put plainly: cell-based or functional assay. The source holds these as a separate data set.

B1: 153 MP3 C-terminal DART (bispecific antibody)
chain 1: DKTHTCPPCPAPEAAGAPSVFLFPPKPKDTLMISRTPEVTCVVVDVSHEDPEVKFNWYVDGVEVHNAKTKPREEQYNSTYRVVSVLTVLHQDWLNGKEYKCKVSNKALPAPIEKTISKAKGQPREPQVYTLPPSREEMTKNQVSLWCLVKGFYPSDIAVEWESNGQPENNYKTTPPVLDSDGSFFLYSKLTVDKSRWQQGNVFSCSVMHEALHNHYTQKSLSLSPGKAPSSSPMEQSVLTQPPSVSAAPGQKVTISCSGSSSNIGNNYVSWYQQLPGTAPKLLIYDNNKRPSGIPDRFSGSKSGTSATLGITGLQTGDEADYYCGTWDSSLSGVVFGGGTKLTVLGGGGSGGGGEVQLVESGGGLVQPGGSLRLSCAASGFTFSTYAMNWVRQAPGKGLEWVGRIRSKYNNYATYYADSVKGRFTISRDDSKNSLYLQMNSLKTEDTAVYYCVRHGNFGNSYVSWFAYWGQGTLVTVSSGVEPKSC
chain 2: QAVVTQEPSLTVSPGGTVTLTCRSSTGAVTTSNYANWVQQKPGQAPRGLIGGTNKRAPWTPARFSGSLLGGKAALTITGAQAEDEADYYCALWYSNLWVFGGGTKLTVLGGGGSGGGGEVQLVQSGAEVKKPGASVKVSCKASGYTFTSYGISWVRQAPGQGLEWMGWISAYNGNTNYAQKLQGRVTMTTDTSTSTAYMELRSLRSDDTAVYYCATIDTANAFGIWGQGTMVTVSSGFNRGEC
chain 3: DKTHTCPPCPAPEAAGAPSVFLFPPKPKDTLMISRTPEVTCVVVDVSHEDPEVKFNWYVDGVEVHNAKTKPREEQYNSTYRVVSVLTVLHQDWLNGKEYKCKVSNKALPAPIEKTISKAKGQPREPQVYTLPPSREEMTKNQVSLSCAVKGFYPSDIAVEWESNGQPENNYKTTPPVLDSDGSFFLVSKLTVDKSRWQQGNVFSCSVMHEALHNRYTQKSLSLSPGK
notes: also called C-terminal MP3-DART P-CAD153 VH and VL
As to B1, in [1], the Kd was 1.56 nM and 2.11 nM; the dissociation rate constant (koff) was 0.000106 s⁻¹ and 0.000179 s⁻¹; the on-rate constant (kon) is 68000 M⁻¹ s⁻¹ and 84600 M⁻¹ s⁻¹; the t½ was 102 min and 60.9 min. In [2], the affinity, expressed as Kd, was 1.84 nM.

B2: 153 MP3 N-terminal DART (bispecific antibody, human IgG1)
chain 1: QSVLTQPPSVSAAPGQKVTISCSGSSSNIGNNYVSWYQQLPGTAPKLLIYDNNKRPSGIPDRFSGSKSGTSATLGITGLQTGDEADYYCGTWDSSLSGVVFGGGTKLTVLGGGGSGGGGEVQLVESGGGLVQPGGSLRLSCAASGFTFSTYAMNWVRQAPGKGLEWVGRIRSKYNNYATYYADSVKGRFTISRDDSKNSLYLQMNSLKTEDTAVYYCVRHGNFGNSYVSWFAYWGQGTLVTVSSGVEPKSCDKTHTCPPCPAPEAAGAPSVFLFPPKPKDTLMISRTPEVTCVVVDVSHEDPEVKFNWYVDGVEVHNAKTKPREEQYNSTYRVVSVLTVLHQDWLNGKEYKCKVSNKALPAPIEKTISKAKGQPREPQVYTLPPSREEMTKNQVSLWCLVKGFYPSDIAVEWESNGQPENNYKTTPPVLDSDGSFFLYSKLTVDKSRWQQGNVFSCSVMHEALHNHYTQKSLSLSPGK
chain 2: QAVVTQEPSLTVSPGGTVTLTCRSSTGAVTTSNYANWVQQKPGQAPRGLIGGTNKRAPWTPARFSGSLLGGKAALTITGAQAEDEADYYCALWYSNLWVFGGGTKLTVLGGGGSGGGGEVQLVQSGAEVKKPGASVKVSCKASGYTFTSYGISWVRQAPGQGLEWMGWISAYNGNTNYAQKLQGRVTMTTDTSTSTAYMELRSLRSDDTAVYYCATIDTANAFGIWGQGTMVTVSSGFNRGEC
chain 3: DKTHTCPPCPAPEAAGAPSVFLFPPKPKDTLMISRTPEVTCVVVDVSHEDPEVKFNWYVDGVEVHNAKTKPREEQYNSTYRVVSVLTVLHQDWLNGKEYKCKVSNKALPAPIEKTISKAKGQPREPQVYTLPPSREEMTKNQVSLSCAVKGFYPSDIAVEWESNGQPENNYKTTPPVLDSDGSFFLVSKLTVDKSRWQQGNVFSCSVMHEALHNRYTQKSLSLSPGK
As to B2, in experiment [1], the Kd is 2.43 nM and 2.78 nM; the koff is 0.000296 s⁻¹ and 0.000228 s⁻¹; the association rate constant (kon) was 122000 M⁻¹ s⁻¹ and 81900 M⁻¹ s⁻¹; the t½ was 36.8 min and 47.8 min. Also, the Kd in experiment [2] was found to be 2.61 nM.

B3: 33 EK-DART (bispecific antibody)
chain 1: QSVLTQPPSVSAAPGQKVTISCSGSSSNIGNNYVSWYQQLPGTAPKLLIYDNNKRPSGIPDRFSGSKSGTSATLGITGLQTGDEADYYCGTWDSSLSAYVFGTGTKVTVLGGGSGGGGEVQLVESGGGLVQPGGSLRLSCAASGFTFNTYAMNWVRQAPGKGLEWVARIRSKYNNYATYYADSVKDRFTISRDDSKNSLYLQMNSLKTEDTAVYYCVRHGNFGNSYVSWFAYWGQGTLVTVSSGGCGGGKVAALKEKVAALKEKVAALKEKVAALKE
chain 2: QAVVTQEPSLTVSPGGTVTLTCRSSTGAVTTSNYANWVQQKPGQAPRGLIGGTNKRAPWTPARFSGSLLGGKAALTITGAQAEDEADYYCALWYSNLWVFGGGTKLTVLGGGGSGGGGQMQLVQSGAEVKKPGASVKVSCKASGYTFTSYGISWVRQAPGQGLEWMGWISAYNGNTNYAQKLQGRVTMTTDTSTSTAYMELRSLRSDDTAVYYCALIGSGVAFDIWGQGTMVTVSSGGCGGGEVAALEKEVAALEKEVAALEKEVAALEK
notes: CD3 VL x P-CAD VH-E-coil); also called P-CAD 33 EK-DART (CD3-2)
B3 gave an EC50 in experiment [3] of 1.8 nM. In [4], this molecule returned an EC50 of 60.1 nM. Moreover, in experiment [5], binding was characterised by a dissociation constant (Kd) of 46.4 nM, the koff came out at 0.0578 s⁻¹ and the kon turned out to be 1.15e+06 M⁻¹ s⁻¹.

B4: 153 EK-DART (bispecific antibody)
chain 1: QSVLTQPPSVSAAPGQKVTISCSGSSSNIGNNYVSWYQQLPGTAPKLLIYDNNKRPSGIPDRFSGSKSGTSATLGITGLQTGDEADYYCGTWDSSLSGVVFGGGTKLTVLGGGSGGGGEVQLVESGGGLVQPGGSLRLSCAASGFTFNTYAMNWVRQAPGKGLEWVARIRSKYNNYATYYADSVKDRFTISRDDSKNSLYLQMNSLKTEDTAVYYCVRHGNFGNSYVSWFAYWGQGTLVTVSSGGCGGGKVAALKEKVAALKEKVAALKEKVAALKE
chain 2: QAVVTQEPSLTVSPGGTVTLTCRSSTGAVTTSNYANWVQQKPGQAPRGLIGGTNKRAPWTPARFSGSLLGGKAALTITGAQAEDEADYYCALWYSNLWVFGGGTKLTVLGGGGSGGGGEVQLVQSGAEVKKPGASVKVSCKASGYTFTSYGISWVRQAPGQGLEWMGWISAYNGNTNYAQKLQGRVTMTTDTSTSTAYMELRSLRSDDTAVYYCATIDTANAFGIWGQGTMVTVSSGGCGGGEVAALEKEVAALEKEVAALEKEVAALEK
Turning to B4, in experiment [6], the affinity, expressed as Kd, was 0.232 nM; the koff stood at 0.000172 s⁻¹; the association rate constant (kon) is 732000 M⁻¹ s⁻¹. In [1], the Kd is 0.403 nM and 0.43 nM; the koff was 0.000211 s⁻¹ and 0.000222 s⁻¹; the kon is 524000 M⁻¹ s⁻¹ and 517000 M⁻¹ s⁻¹; the t½ is 51.6 min and 49 min. In addition, binding in experiment [2] was put at a Kd of 0.417 nM.

B5: 35 LP-DART (bispecific antibody)
chain 1: QSVLTQPPSVSAAPGQKVTISCSGSSSNIGNNYVSWYQQLPGTAPKLLIYDNNKRPSGIPDRFSGSKSGTSATLGITGLQTGDEADYYCGTWDSSLSAVVFGGGTKLTVLGGGSGGGGEVQLVESGGGLVQPGGSLRLSCAASGFTFSTYAMNWVRQAPGKGLEWVGRIRSKYNNYATYYADSVKGRFTISRDDSKNSLYLQMNSLKTEDTAVYYCVRHGNFGNSYVSWFAYWGQGTLVTVSSGCPPCPAPEAAGAPSVFLFPPKPKDTLMISRTPEVTCVVVDVSHEDPEVKFNWYVDGVEVHNAKTKPREEQYNSTYRVVSVLTVLHQDWLNGKEYKCKVSNKALPAPIEKTISKAKGQPREPQVCTLPPSREEMTKNQVSLWCLVKGFYPSDIAVEWESNGQPENNYKTTPPVLDSDGSFFLYSKLTVDKSRWQQGNVFSCSVMHEALHNHYTQKSLSLSPG
chain 2: QAVVTQEPSLTVSPGGTVTLTCRSSTGAVTTSNYANWVQQKPGQAPRGLIGGTNKRAPWTPARFSGSLLGGKAALTITGAQAEDEADYYCALWYSNLWVFGGGTKLTVLGGGGSGGGGEVQLVQSGAEVKKPGASVKVSCKASGYTFTSYGISWVRQAPGQGLEWMGWISAYNGNTNYAQKLQGRVTMTTDTSTSTAYMELRSLRSDDTAVYYCATIDTASAFDIWGQGTMVTVSSGCPPCPAPEAAGAPSVFLFPPKPKDTLMISRTPEVTCVVVDVSHEDPEVKFNWYVDGVEVHNAKTKPREEQYNSTYRVVSVLTVLHQDWLNGKEYKCKVSNKALPAPIEKTISKAKGQPREPQVYTLPPCREEMTKNQVSLSCAVKGFYPSDIAVEWESNGQPENNYKTTPPVLDSDGSFFLVSKLTVDKSRWQQGNVFSCSVMHEALHNHYTQKSLSLSPG
On to B5, for which, in experiment [7], the “DU145 CTL (LDH) EC50” value worked out at 7.3 pM and the “HCT116 CTL (Luc) EC50” value was determined as 0.107 nM.

B6: LP-DART #3 (bispecific antibody)
chain 1: QAVVTQEPSLTVSPGGTVTLTCRSSTGAVTTSNYANWVQQKPGQAPRGLIGGTNKRAPWTPARFSGSLLGGKAALTITGAQAEDEADYYCALWYSNLWVFGGGTKLTVLGGGGSGGGGEVQLVQSGAEVKKPGASVKVSCKASGYTFTSYGISWVRQAPGQGLEWMGWISAYNGNTNYAQKLQGRVTMTTDTSTSTAYMELRSLRSDDTAVYYCATIDTASAFDIWGQGTMVTVSSGEPKSSDKTHTCPPCPAPEAAGAPSVFLFPPKPKDTLMISRTPEVTCVVVDVSHEDPEVKFNWYVDGVEVHNAKTKPREEQYNSTYRVVSVLTVLHQDWLNGKEYKCKVSNKALPAPIEKTISKAKGQPREPQVCTLPPSREEMTKNQVSLWCLVKGFYPSDIAVEWESNGQPENNYKTTPPVLDSDGSFFLYSKLTVDKSRWQQGNVFSCSVMHEALHNHYTQKSLSLSPG
chain 2: QSVLTQPPSVSAAPGQKVTISCSGSSSNIGNNYVSWYQQLPGTAPKLLIYDNNKRPSGIPDRFSGSKSGTSATLGITGLQTGDEADYYCGTWDSSLSAVVFGGGTKLTVLGGGSGGGGEVQLVESGGGLVQPGGSLRLSCAASGFTFNTYAMNWVRQAPGKGLEWVARIRSKYNNYATYYADSVKDRFTISRDDSKNSLYLQMNSLKTEDTAVYYCVRHGNFGNSYVSWFAYWGQGTLVTVSSGEPKSSDKTHTCPPCPAPEAAGAPSVFLFPPKPKDTLMISRTPEVTCVVVDVSHEDPEVKFNWYVDGVEVHNAKTKPREEQYNSTYRVVSVLTVLHQDWLNGKEYKCKVSNKALPAPIEKTISKAKGQPREPQVYTLPPCREEMTKNQVSLSCAVKGFYPSDIAVEWESNGQPENNYKTTPPVLDSDGSFFLVSKLTVDKSRWQQGNVFSCSVMHEALHNHYTQKSLSLSPG
notes: also called P-cadherin LP-DART construct #3 (P-CAD 35, CD3-2)
B6 yielded a Kd in experiment [8] of 85.7 nM. Besides, the “T cell Cytotoxicity” value in [9] is 1.6 nM.
